Among the data in the supplement of paper PMC10126150 are switch fluorescence ratio values, retold here.

± gives the standard deviation of the averaged measurements.
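Also: ATP exposure 15 min at 22 °C before imaging.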

The subject of the data set is ATP. In words: switch fluorescence ratio, 500 uM ATP over buffer (Cy3 cluster intensity, sum of 5 cycles each) (fold (ratio)); higher = stronger signal-on switching upon ATP binding; sequences stand for … in TCGTCGGCAGCGTCAGATGTGTATAAGAGACAGTTTTTTTTTTTTTTTTTTTTTTTTT…TC. The settings on record: aptamer strand: ATP DNA aptamer (quencher-CACCTGGGGGAGTATTGCGGAGGAAGG + anchor), 100 nM annealed; ATP concentration: 500 uM. The procedure, abridged:
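Cy3-labelled switching-strand clusters on a modified Illumina MiSeq flow-cell were annealed to 100 nM quencher-labelled ATP aptamer, imaged in selection buffer, then imaged after 15 min with 500 uM ATP at 22 °C. Five buffer/ATP cycles ran, with NaOH stripping and re-annealing between them. The fluorescence ratio is summed target-cycle over summed buffer-cycle Cy3 intensity per cluster, averaged per switch-domain sequence. Clusters outside 100-1000 RFU were excluded.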
Regarding AATTAGGAGT, the switch fluorescence ratio is 1.06 ± 0.079.
The same measure for TCCCAGCTGT: 1.12 ± 0.033; for AACGGCGCCA: 0.983 ± 0.025; for TTCTGTTGAC: 1.7 ± 0.95.
On to TATACGGCAC, for which the switch fluorescence ratio stood at 2.04 ± 0.14.
The same measure for CGTCCGAGGT: 1.3 ± 0.048; for CCAACTTGGA: 0.9849 ± 0.003; for CCTGTTACTT: 0.97 ± 0.04.
Next, AGGACTTTGG: 1.05 ± 0.056; GGGATTTTTA: 0.987 ± 0.018; AAGCTTGTTG: 0.992 ± 0.038.
The same measure for CGGTTTTGGG: 0.977 ± 0.012; for GTTGGGTTTG: 0.999 ± 0.026.
As for TGCTAGAAGT, the switch fluorescence ratio was found to be 0.9792 ± 0.003.
In the case of TTCATTCCGA, the switch fluorescence ratio was found to be 1.29 ± 0.095.
The same measure for CGATTGCATT: 1.27 ± 0.045; for TCAGGGGGGA: 1 ± 0.04; for CTTACGGTCG: 1.02 ± 0.038.
The same measure for GTAAGTCCGA: 0.98 ± 0.0033; for TCAAGAGATG: 1 ± 0.015.
Next, AGAGTTTTTA: 1.01 ± 0.035; CTGGTGGATT: 0.996 ± 0.024; ACTGGGGGAA: 0.97 ± 0.018.
Take CGGGTTTGCG: the switch fluorescence ratio is 0.992 ± 0.036.
Next, GAGGGGGCAC: 1.03 ± 0.042.
The same measure for GTATGGGGCA: 1 ± 0.029.
Next, AAAGGCGCTG: 0.984 ± 0.041.
As for CTGGGATTTG, the switch fluorescence ratio was determined as 0.997 ± 0.049.
Next, GATGCCGGCA: 0.98 ± 0.065; ACGGGCGGTC: 1.01 ± 0.015.
With AAGTTGAATT, the switch fluorescence ratio worked out at 0.99 ± 0.029.
For the sequence TGCGGGTGGG, the switch fluorescence ratio was determined as 1.03 ± 0.026.
On to TTTTTGTTAG, for which the switch fluorescence ratio stood at 0.965 ± 0.024.
The same measure for TGGTGGTATG: 1.01 ± 0.071; for CGTAGGAGGA: 0.98 ± 0.036.
Next, TAGATAGAAT: 1 ± 0.045; AGTACGGTAA: 1.13 ± 0.025.
Next, ATGGCTACCG: 1.01 ± 0.033.
As to TGACTTTTTA, the switch fluorescence ratio was 0.9933 ± 0.0075.
The same measure for ATTTGAGAAA: 1.01 ± 0.025.
TGCTGGATTA: the switch fluorescence ratio came out at 1.01 ± 0.031.
With TGAAAAGTTG, the switch fluorescence ratio came out at 0.987 ± 0.1.
The same measure for TGGGTTGCTG: 1.05 ± 0.066; for CATAGGCTGG: 0.985 ± 0.016.
Turning to GAGTGCTCGA, the switch fluorescence ratio was determined as 1.01 ± 0.074.
The same measure for TGTTGCTTAA: 0.993 ± 0.019; for TTGCCAGTGT: 0.996 ± 0.028; for AGGACTTGTG: 0.972 ± 0.023.
The same measure for CGGTTACCTG: 0.9708 ± 0.0074; for GCCGTCGGCA: 1 ± 0.017; for TGAGTGCCTA: 0.973 ± 0.047.
Next, AATATTGTCT: 0.96 ± 0.013; GTTGAAACAC: 1.02 ± 0.046.
Turning to CTCGTGGCGG, the switch fluorescence ratio was 1.02 ± 0.076.
Next, CGTTAAGGCT: 0.973 ± 0.015.
Next, CCGGTAGGTA: 0.969 ± 0.011; TATACAAATT: 0.989 ± 0.043.
The same measure for GGTGTTTTTA: 1.07 ± 0.067.
In the case of TATTGGGTCA, the switch fluorescence ratio is 0.996 ± 0.03.
Next, GGGTTTATGG: 0.987 ± 0.056.
Next, GTACCCCAGG: 3.5 ± 3.3.
In the case of GCCCGGGAGC, the switch fluorescence ratio came out at 1 ± 0.037.
Next, CTCCGAGGGG: 1.31 ± 0.21.
Next, TTGTTTTTT: 1.03 ± 0.018; AAGAGTCGTA: 0.969 ± 0.027; TTGGACAGGG: 1 ± 0.02.
Next, GACGTGAGGA: 0.989 ± 0.024; GCTCGACTTT: 1.02 ± 0.012; CATAATAATC: 0.98 ± 0.026.
For the sequence AACGGGGGCC, the switch fluorescence ratio is 1.03 ± 0.066.
The same measure for GACGGGGTAG: 1 ± 0.048.
TCTTGGGGGG: the switch fluorescence ratio came out at 1 ± 0.019.
As for TGTATGGCGC, the switch fluorescence ratio came to 1.01 ± 0.058.
For the sequence TTGAGGGTTG, the switch fluorescence ratio is 0.987 ± 0.037.
The same measure for GGGGCGTTAG: 1.002 ± 0.0065; for GCCATATTTC: 0.998 ± 0.041; for TGTTTTTTTA: 0.979 ± 0.024.
The same measure for AGTATTAATG: 1 ± 0.04.
The same measure for TTGAGCTAGA: 0.971 ± 0.025.
